Reference: article PMC9437899

Target: neonatal Fc receptor (FcRn) (UniProt P55899)
Test: ELISA; pH 6.0; absorbance read with a plate reader; Kd defined as the concentration of protein that produces 50% of optimal binding response; who was immobilised is not given in the source

neonatal Fc receptor (FcRn), sequence (P55899 24-365): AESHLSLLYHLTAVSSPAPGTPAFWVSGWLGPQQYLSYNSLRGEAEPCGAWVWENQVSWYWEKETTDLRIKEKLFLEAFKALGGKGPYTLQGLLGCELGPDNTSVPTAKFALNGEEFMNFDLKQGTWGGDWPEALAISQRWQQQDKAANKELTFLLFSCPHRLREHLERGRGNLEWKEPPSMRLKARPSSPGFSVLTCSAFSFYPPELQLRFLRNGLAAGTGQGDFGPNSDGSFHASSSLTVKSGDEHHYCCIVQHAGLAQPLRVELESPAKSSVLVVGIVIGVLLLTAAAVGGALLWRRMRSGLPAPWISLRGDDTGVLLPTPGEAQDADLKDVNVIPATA

Fc-PepH3 conjugate (Fc fusion) was tested, and the Kd was 95.4 nM.
